Legend:
Assay in all cases: HDX-MS
[1] = target: Murine dimerization domain p50(248-350)/RelA(190-321) (mouse, UniProt P25799 248-350; Q04207 190-321)
[2] = target: T1, Murine N-terminal hexahistidine-p50(39-350) (mouse, UniProt P25799 39-350)
T1 sequence (looked up): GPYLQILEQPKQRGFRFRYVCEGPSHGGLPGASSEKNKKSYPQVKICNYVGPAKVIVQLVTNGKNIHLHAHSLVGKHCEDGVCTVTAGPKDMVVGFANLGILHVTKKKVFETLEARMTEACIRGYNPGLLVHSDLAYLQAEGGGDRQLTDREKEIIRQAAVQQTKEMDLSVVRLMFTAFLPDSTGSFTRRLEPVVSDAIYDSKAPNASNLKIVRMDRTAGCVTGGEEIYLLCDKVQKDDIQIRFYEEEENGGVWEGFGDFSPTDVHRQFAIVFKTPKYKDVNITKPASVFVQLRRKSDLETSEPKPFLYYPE

Murine RelA(19-321) = Murine RelA(19-321) (mouse, UniProt Q04207 19-321)
Sequence of Murine RelA(19-321) (Q04207 19-321): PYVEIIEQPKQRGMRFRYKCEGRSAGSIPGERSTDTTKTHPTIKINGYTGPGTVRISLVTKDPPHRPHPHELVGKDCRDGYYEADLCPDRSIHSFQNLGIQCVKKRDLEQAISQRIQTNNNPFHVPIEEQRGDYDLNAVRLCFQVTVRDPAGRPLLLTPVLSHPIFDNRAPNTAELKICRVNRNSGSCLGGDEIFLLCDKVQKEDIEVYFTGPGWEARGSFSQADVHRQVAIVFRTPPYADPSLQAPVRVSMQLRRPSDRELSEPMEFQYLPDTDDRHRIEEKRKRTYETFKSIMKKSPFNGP

Sequence of Murine dimerization domain p50(248-350)/RelA(190-321) (Q04207 190-321, one chain of several): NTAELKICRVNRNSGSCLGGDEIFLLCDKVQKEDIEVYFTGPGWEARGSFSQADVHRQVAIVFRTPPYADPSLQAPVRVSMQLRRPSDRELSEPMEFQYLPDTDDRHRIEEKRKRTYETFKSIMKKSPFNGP

binding result [1]: binds
binding result [2]: binds
binding result (Murine RelA(19-321)): binds
B1: Homo sapiens IκBα(67-287) (domain or fragment, human, UniProt P25963 67-287, looked up)
chain: KQQLTEDGDSFLHLAIIHEEKALTMEVIRQVKGDLAFLNFQNNLQQTPLHLAVITNQPEIAEALLGAGCDPELRDFRGNTPLHLACEQGCLASVGVLTQSCTTPHLHSILKATNYNGHTCLHLASIHGYLGIVELLVSLGADVNAQEPCNGRTALHLAVDLQNPDLVSLLLKCGADVNRVTYQGYSPYQLTWGRPSTRIQQQLGQLTLENLQMLPESEDEE
